The text below walks through data of patent US20250333474A1.

The target in this test is T1, H-2K^b of MHC class I of MutuDC1940 cells (without loaded OVA^257-264 peptide) (mouse).
T1 chain 1: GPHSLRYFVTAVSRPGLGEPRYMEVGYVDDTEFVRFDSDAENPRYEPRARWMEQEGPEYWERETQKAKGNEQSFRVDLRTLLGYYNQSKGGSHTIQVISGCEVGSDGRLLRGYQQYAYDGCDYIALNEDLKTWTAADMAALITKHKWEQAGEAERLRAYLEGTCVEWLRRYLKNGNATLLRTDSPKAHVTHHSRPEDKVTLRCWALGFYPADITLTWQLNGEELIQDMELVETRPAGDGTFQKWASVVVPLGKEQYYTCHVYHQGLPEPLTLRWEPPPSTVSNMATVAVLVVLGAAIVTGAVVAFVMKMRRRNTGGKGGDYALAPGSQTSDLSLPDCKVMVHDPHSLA
T1 chain 2: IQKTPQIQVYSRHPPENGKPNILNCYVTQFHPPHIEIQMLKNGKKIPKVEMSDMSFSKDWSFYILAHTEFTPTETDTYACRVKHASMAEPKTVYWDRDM
The experiment in a line: peptide loading on MutuDC1940 cells for 24 h, read by 25D1.16 staining and flow cytometry. As to conditions: remark: other sources report otherwise.

For SIINFEKL [OVA^257-264 antigen peptide], the saturate peptide concentration is 2 µg/mL.
